# Target: T1, ヒト組織因子(TF)(ヒト膀胱癌細胞J82上に発現) (human, UniProt P13726 33-295)
# T1 construct: whole, on cells; Target of the cell ELISA; also called ヒトTF; 抗原
# Assay: cell ELISA on fixed J82 cells
row,Binder,binding result
1,"H鎖ヒト型化バージョンa/L鎖キメラ抗体 (antibody, V domains shown, Human IgG4 kappa (vector N5KG4P); also called a-ch) VH: QVQLLESGAVLARPGTSVKISCKASGFNIKDYYMHWVKQRPGQGLEWIGGNDPANGHSMYDPKFQGRAKLTAATSASIAYLEFSSLTNEDSAVYYCARDSGYAMDYWGQGTLVTVSS VL: DIKMTQSPSSMYASLGERVTITCKASQDIKSFLSWYQQKPWKSPKTLIYYATSLADGVPSRFSGSGSGQDYSLTINNLESDDTATYYCLQHGESPYTFGGGTKLEIK",binds
2,"H鎖ヒト型化バージョンb/L鎖キメラ抗体 (antibody, V domains shown, Human IgG4 kappa (vector N5KG4P); also called b-ch) VH: QVQLLESGAVLARPGTSVKISCKASGFNIKDYYMHWVKQRPGQGLEWIGGNDPANGHSMYDPKFQGRVTITADTSTNTAYMELSSLRSEDTAIYYCARDSGYAMDYWGQGTLVTVSS VL: DIKMTQSPSSMYASLGERVTITCKASQDIKSFLSWYQQKPWKSPKTLIYYATSLADGVPSRFSGSGSGQDYSLTINNLESDDTATYYCLQHGESPYTFGGGTKLEIK",binds
3,"H鎖ヒト型化バージョンc/L鎖キメラ抗体 (antibody, V domains shown, Human IgG4 kappa (vector N5KG4P); also called c-ch) VH: QVQLLESGAVLARPGTSVKISCKASGFNIKDYYMHWVKQRPGQGLEWIGGNDPANGHSMYDPKFQGRVTMLVDTSKNQFSLRLSSVTAADTAVYYCARDSGYAMDYWGQGTLVTVSS VL: DIKMTQSPSSMYASLGERVTITCKASQDIKSFLSWYQQKPWKSPKTLIYYATSLADGVPSRFSGSGSGQDYSLTINNLESDDTATYYCLQHGESPYTFGGGTKLEIK",binds
4,"H鎖ヒト型化バージョンa/L鎖ヒト型化バージョンa抗体 (antibody, V domains shown, Human IgG4 kappa (vector N5KG4P); also called a-a) VH: QVQLLESGAVLARPGTSVKISCKASGFNIKDYYMHWVKQRPGQGLEWIGGNDPANGHSMYDPKFQGRAKLTAATSASIAYLEFSSLTNEDSAVYYCARDSGYAMDYWGQGTLVTVSS VL: DIQMTQSPSSLSASVGDRVTITCKASQDIKSFLSWYQQKPGKAPKLLIYYATSLADGVPSRFSGSGSGTDFTLTISSLQPEDFATYYCLQHGESPYTFGGGTKVEIK",binds
5,"H鎖ヒト型化バージョンd/L鎖キメラ抗体 (antibody, V domains shown, Human IgG4 kappa (vector N5KG4P); also called d-ch) VH: QVQLLESGAVLARPGTSVKISCKASGFNIKDYYMHWVKQRPGQGLEWIGGNDPANGHSMYDPKFQGRVTITADESTSTAYMELSSLRSEDSAVYFCARDSGYAMDYWGQGTLVTVSS VL: DIKMTQSPSSMYASLGERVTITCKASQDIKSFLSWYQQKPWKSPKTLIYYATSLADGVPSRFSGSGSGQDYSLTINNLESDDTATYYCLQHGESPYTFGGGTKLEIK",binds
6,"H鎖ヒト型化バージョンe/L鎖キメラ抗体 (antibody, V domains shown, Human IgG4 kappa (vector N5KG4P); also called e-ch) VH: QVQLLESGAVLARPGTSVKISCKASGFNIKDYYMHWVKQRPGQGLEWIGGNDPANGHSMYDPKFQGRVSITADESTKIAYMELNSLRSEDTAVYFCARDSGYAMDYWGQGTLVTVSS VL: DIKMTQSPSSMYASLGERVTITCKASQDIKSFLSWYQQKPWKSPKTLIYYATSLADGVPSRFSGSGSGQDYSLTINNLESDDTATYYCLQHGESPYTFGGGTKLEIK",binds
7,"H鎖ヒト型化バージョンj/L鎖キメラ抗体 (antibody, V domains shown, Human IgG4 kappa (vector N5KG4P); also called j-ch) VH: QVQLLESGAVLARPGTSVKISCKASGFNIKDYYMHWVKQRPGQGLEWIGGNDPANGHSMYDPKFQGRVTFTADTSANTAYMELRSLRSADTAVYYCARDSGYAMDYWGQGTLVTVSS VL: DIKMTQSPSSMYASLGERVTITCKASQDIKSFLSWYQQKPWKSPKTLIYYATSLADGVPSRFSGSGSGQDYSLTINNLESDDTATYYCLQHGESPYTFGGGTKLEIK",binds
8,"H鎖ヒト型化バージョンi/L鎖キメラ抗体 (antibody, V domains shown, Human IgG4 kappa (vector N5KG4P); also called i-ch) VH: QVQLLESGAVLARPGTSVKISCKASGFNIKDYYMHWVKQRPGQGLEWIGGNDPANGHSMYDPKFQGRVTITADTSTSTVFMELSSLRSEDTAVYYCARDSGYAMDYWGQGTLVTVSS VL: DIKMTQSPSSMYASLGERVTITCKASQDIKSFLSWYQQKPWKSPKTLIYYATSLADGVPSRFSGSGSGQDYSLTINNLESDDTATYYCLQHGESPYTFGGGTKLEIK",binds
9,"H鎖キメラ/L鎖ヒト型化バージョンb抗体 (antibody, V domains shown, Human IgG4 kappa (vector N5KG4P); also called ch-b) VH: EVQLQQSGTNLVRPGALVKLSCKGSGFNIKDYYMHWVKQRPEQGLEWIGGNDPANGHSMYDPKFQGKASITADTSSNTAYLQLSSLTSEDTAVYFCARDSGYAMDYWGQGTSVTVSS VL: DIQMTQSPSSLSASVGDRVTITCKASQDIKSFLSWYQQKPGKAPKLLIYYATSLADGVPSRFSGSGSGTDYTLTISSLQPEDFATYYCLQHGESPYTFGGGTKVEIK",binds
10,"H鎖ヒト型化バージョンi/L鎖ヒト型化バージョンb1抗体 (antibody, V domains shown, Human IgG4 kappa (vector N5KG4P); also called i-b1) VH: QVQLLESGAVLARPGTSVKISCKASGFNIKDYYMHWVKQRPGQGLEWIGGNDPANGHSMYDPKFQGRVTITADTSTSTVFMELSSLRSEDTAVYYCARDSGYAMDYWGQGTLVTVSS VL: DIQMTQSPSSLSASVGDRVTITCKASQDIKSFLSWFQQKPGKSPKTLIYYATSLADGVPSRFSGSGSGTDYTLTISSLQPEDFATYYCLQHGESPYTFGGGTKVEIK",binds
11,"H鎖キメラ/L鎖ヒト型化バージョンb2抗体 (antibody, V domains shown, Human IgG4 kappa (vector N5KG4P); also called ch-b2) VH: EVQLQQSGTNLVRPGALVKLSCKGSGFNIKDYYMHWVKQRPEQGLEWIGGNDPANGHSMYDPKFQGKASITADTSSNTAYLQLSSLTSEDTAVYFCARDSGYAMDYWGQGTSVTVSS VL: DIQMTQSPSSLSASVGDRVTITCKASQDIKSFLSWYQQKPEKAPKSLIYYATSLADGVPSRFSGSGSGTDYTLTISSLQPEDFATYYCLQHGESPYTFGGGTKVEIK",binds
12,"H鎖ヒト型化バージョンb3/L鎖ヒト型化バージョンb抗体 (antibody, V domains shown, Human IgG4 kappa (vector N5KG4P); also called b3-b) VH: QVQLLESGAVLARPGTSVKISCKASGFNIKDYYMHWVRQAPGQGLEWIGGNDPANGHSMYDPKFQGRVTITADTSTNTAYMELSSLRSEDTAIYYCARDSGYAMDYWGQGTLVTVSS VL: DIQMTQSPSSLSASVGDRVTITCKASQDIKSFLSWYQQKPGKAPKLLIYYATSLADGVPSRFSGSGSGTDYTLTISSLQPEDFATYYCLQHGESPYTFGGGTKVEIK",binds
13,"H鎖ヒト型化バージョンb/L鎖ヒト型化バージョンc抗体 (antibody, V domains shown, the construction of its expression plasmid is not described; also called b-c) VH: QVQLLESGAVLARPGTSVKISCKASGFNIKDYYMHWVKQRPGQGLEWIGGNDPANGHSMYDPKFQGRVTITADTSTNTAYMELSSLRSEDTAIYYCARDSGYAMDYWGQGTLVTVSS VL: DIQMTQSPSSLSASVGDRVTITCKASQDIKSFLSWYQQKPGKAPKLLIYYATSLADGVPSRFSGSGSGTDYTLTISSLQPEDIATYYCLQHGESPYTFGGGTKVEIK",binds
14,"H鎖ヒト型化バージョンd3/L鎖ヒト型化バージョンb抗体 (antibody, V domains shown, Human IgG4 kappa (vector N5KG4P); also called d3-b) VH: QVQLLESGAVLARPGTSVKISCKASGFNIKDYYMHWVRQAPGQGLEWIGGNDPANGHSMYDPKFQGRVTITADESTSTAYMELSSLRSEDSAVYFCARDSGYAMDYWGQGTLVTVSS VL: DIQMTQSPSSLSASVGDRVTITCKASQDIKSFLSWYQQKPGKAPKLLIYYATSLADGVPSRFSGSGSGTDYTLTISSLQPEDFATYYCLQHGESPYTFGGGTKVEIK",binds
15,"H鎖ヒト型化バージョンg/L鎖ヒト型化バージョンb抗体 (antibody, V domains shown, Human IgG4 kappa (vector N5KG4P); also called g-b) VH: QVQLLESGAVLARPGTSVKISCKASGFNIKDYYMHWVKQRPGQGLEWIGGNDPANGHSMYDPKFQGKATLTADESSSTAYMQLSSLRSEDSAVYSCARDSGYAMDYWGQGTLVTVSS VL: DIQMTQSPSSLSASVGDRVTITCKASQDIKSFLSWYQQKPGKAPKLLIYYATSLADGVPSRFSGSGSGTDYTLTISSLQPEDFATYYCLQHGESPYTFGGGTKVEIK",binds

# More lines, now with the values ahead:
row,binding result,Binder
1,binds,"H鎖キメラ/L鎖ヒト型化バージョンb1抗体 (antibody, V domains shown, Human IgG4 kappa (vector N5KG4P); also called ch-b1) VH: EVQLQQSGTNLVRPGALVKLSCKGSGFNIKDYYMHWVKQRPEQGLEWIGGNDPANGHSMYDPKFQGKASITADTSSNTAYLQLSSLTSEDTAVYFCARDSGYAMDYWGQGTSVTVSS VL: DIQMTQSPSSLSASVGDRVTITCKASQDIKSFLSWFQQKPGKSPKTLIYYATSLADGVPSRFSGSGSGTDYTLTISSLQPEDFATYYCLQHGESPYTFGGGTKVEIK"
2,binds,"H鎖キメラ/L鎖ヒト型化バージョンa抗体 (antibody, V domains shown, Human IgG4 kappa (vector N5KG4P); also called ch-a) VH: EVQLQQSGTNLVRPGALVKLSCKGSGFNIKDYYMHWVKQRPEQGLEWIGGNDPANGHSMYDPKFQGKASITADTSSNTAYLQLSSLTSEDTAVYFCARDSGYAMDYWGQGTSVTVSS VL: DIQMTQSPSSLSASVGDRVTITCKASQDIKSFLSWYQQKPGKAPKLLIYYATSLADGVPSRFSGSGSGTDFTLTISSLQPEDFATYYCLQHGESPYTFGGGTKVEIK"
3,binds,"H鎖ヒト型化バージョンb/L鎖ヒト型化バージョンa抗体 (antibody, V domains shown, Human IgG4 kappa (vector N5KG4P); also called b-a) VH: QVQLLESGAVLARPGTSVKISCKASGFNIKDYYMHWVKQRPGQGLEWIGGNDPANGHSMYDPKFQGRVTITADTSTNTAYMELSSLRSEDTAIYYCARDSGYAMDYWGQGTLVTVSS VL: DIQMTQSPSSLSASVGDRVTITCKASQDIKSFLSWYQQKPGKAPKLLIYYATSLADGVPSRFSGSGSGTDFTLTISSLQPEDFATYYCLQHGESPYTFGGGTKVEIK"
4,binds,"H鎖ヒト型化バージョンb/L鎖ヒト型化バージョンb2抗体 (antibody, V domains shown, Human IgG4 kappa (vector N5KG4P); also called b-b2) VH: QVQLLESGAVLARPGTSVKISCKASGFNIKDYYMHWVKQRPGQGLEWIGGNDPANGHSMYDPKFQGRVTITADTSTNTAYMELSSLRSEDTAIYYCARDSGYAMDYWGQGTLVTVSS VL: DIQMTQSPSSLSASVGDRVTITCKASQDIKSFLSWYQQKPEKAPKSLIYYATSLADGVPSRFSGSGSGTDYTLTISSLQPEDFATYYCLQHGESPYTFGGGTKVEIK"
5,binds,"H鎖ヒト型化バージョンj/L鎖ヒト型化バージョンb抗体 (antibody, V domains shown, Human IgG4 kappa (vector N5KG4P); also called j-b) VH: QVQLLESGAVLARPGTSVKISCKASGFNIKDYYMHWVKQRPGQGLEWIGGNDPANGHSMYDPKFQGRVTFTADTSANTAYMELRSLRSADTAVYYCARDSGYAMDYWGQGTLVTVSS VL: DIQMTQSPSSLSASVGDRVTITCKASQDIKSFLSWYQQKPGKAPKLLIYYATSLADGVPSRFSGSGSGTDYTLTISSLQPEDFATYYCLQHGESPYTFGGGTKVEIK"
6,binds,"H鎖キメラ/L鎖ヒト型化バージョンc抗体 (antibody, V domains shown, Human IgG4 kappa (vector N5KG4P); also called ch-c) VH: EVQLQQSGTNLVRPGALVKLSCKGSGFNIKDYYMHWVKQRPEQGLEWIGGNDPANGHSMYDPKFQGKASITADTSSNTAYLQLSSLTSEDTAVYFCARDSGYAMDYWGQGTSVTVSS VL: DIQMTQSPSSLSASVGDRVTITCKASQDIKSFLSWYQQKPGKAPKLLIYYATSLADGVPSRFSGSGSGTDYTLTISSLQPEDIATYYCLQHGESPYTFGGGTKVEIK"
7,binds,"H鎖ヒト型化バージョンd/L鎖ヒト型化バージョンb抗体 (antibody, V domains shown, Human IgG4 kappa (vector N5KG4P); also called d-b) VH: QVQLLESGAVLARPGTSVKISCKASGFNIKDYYMHWVKQRPGQGLEWIGGNDPANGHSMYDPKFQGRVTITADESTSTAYMELSSLRSEDSAVYFCARDSGYAMDYWGQGTLVTVSS VL: DIQMTQSPSSLSASVGDRVTITCKASQDIKSFLSWYQQKPGKAPKLLIYYATSLADGVPSRFSGSGSGTDYTLTISSLQPEDFATYYCLQHGESPYTFGGGTKVEIK"
